Columns and labels:
[1] = target: GST-WASP (Wiskott–Aldrich syndrome protein) fusion construct; assay: BLI; Octet Red; GST fusion proteins (10 μg/ml) loaded on anti-GST sensors, dipped into a dilution range of Cdc42·GMPPNP; 50 mM Tris–HCl pH 7.5, 150 mM NaCl, 1 mM MgCl2, 0.02% Tween 20, 0.1% BSA, 0.05% sodium azide, 25 °C; GST-alone sensors subtracted
[2] = target: GST-WASP ΔBR (basic region mutant of WASP); assay: as above
[3] = target: GST-ACK GBD wild type, ACK(448-489) (UniProt Q07912); assay: as above
GST-ACK GBD S455A = GST-ACK GBD S455A (UniProt Q07912); assay: scintillation proximity assay (direct binding); 20 nM GST-ACK variant immobilised on protein A SPA fluoromicrospheres via an anti-GST antibody; varying concentrations of [3H]GTP-Cdc42; background without effector subtracted; apparent Kd from a direct binding isotherm
GST-ACK GBD D480A = GST-ACK GBD D480A (UniProt Q07912); assay: as above
GST-ACK GBD Δ17 = GST-ACK GBD Δ17 (UniProt Q07912); assay: as above
GST-ACK GBD L449A = GST-ACK GBD L449A (UniProt Q07912); assay: as above
GST-ACK GBD Q452A = GST-ACK GBD Q452A (UniProt Q07912); assay: as above
GST-ACK GBD L487A = GST-ACK GBD L487A (UniProt Q07912); assay: as above
GST-ACK GBD D469A = GST-ACK GBD D469A (UniProt Q07912); assay: as above
GST-ACK GBD P457A = GST-ACK GBD P457A (UniProt Q07912); assay: as above
GST-ACK GBD Q459A = GST-ACK GBD Q459A (UniProt Q07912); assay: as above
GST-ACK GBD S470A = GST-ACK GBD S470A (UniProt Q07912); assay: as above
GST-ACK GBD S450A = GST-ACK GBD S450A (UniProt Q07912); assay: as above
GST-ACK GBD G468A = GST-ACK GBD G468A (UniProt Q07912); assay: as above
GST-ACK GBD H464A/H467A = GST-ACK GBD H464A/H467A (UniProt Q07912); assay: as above
GST-ACK GBD I463A = GST-ACK GBD I463A (UniProt Q07912); assay: as above
GST-ACK GBD T465A = GST-ACK GBD T465A (UniProt Q07912); assay: as above
GST-ACK GBD R481A = GST-ACK GBD R481A (UniProt Q07912); assay: as above
GST-ACK GBD H467A = GST-ACK GBD H467A (UniProt Q07912); assay: as above
GST-ACK GBD F462A = GST-ACK GBD F462A (UniProt Q07912); assay: as above
GST-ACK GBD W476A = GST-ACK GBD W476A (UniProt Q07912); assay: as above
[4] = target: GST-ACK GBD wild type, ACK(448-489) (UniProt Q07912); assay: as above
GST-ACK GBD H464A = GST-ACK GBD H464A (UniProt Q07912); assay: as above
GST-ACK GBD L485A = GST-ACK GBD L485A (UniProt Q07912); assay: as above
GST-ACK GBD S461A = GST-ACK GBD S461A (UniProt Q07912); assay: as above
GST-ACK GBD A451D = GST-ACK GBD A451D (UniProt Q07912); assay: as above
Cdc42 Δ7 Q61L = Cdc42 Δ7 Q61L (UniProt P60953); assay: scintillation proximity assay (competition); 30 nM GST-WT ACK GBD immobilised on protein A SPA fluoromicrospheres via an anti-GST antibody, 30 nM [3H]GTP-Cdc42; increasing concentrations of GST-cleaved ACK variant; pure competition model, apparent Kd (Ki)

Cdc42 Δ7 Q61L (from UniProt P60953 1-191) (natural protein)
Kd [1]: 30 nM | kon [1]: 793000 M⁻¹ s⁻¹ | Kd [2]: 220 nM | kon [2]: 360000 M⁻¹ s⁻¹ | Kd [3]: 130 nM | kon [3]: 224000 M⁻¹ s⁻¹ | Kd (GST-ACK GBD S455A): 243 nM | Kd (GST-ACK GBD D480A): 164 nM | fold increase in Kd over WT (GST-ACK GBD Δ17): > 22.6 -fold | Kd (GST-ACK GBD L449A): 492 nM | Kd (GST-ACK GBD Q452A): 44 nM | Kd (GST-ACK GBD L487A): 330 nM | Kd (GST-ACK GBD D469A): 38 nM | fold increase in Kd over WT (GST-ACK GBD P457A): > 22.6 -fold | Kd (GST-ACK GBD Q459A): 29.8 nM | Kd (GST-ACK GBD S470A): 35.4 nM | Kd (GST-ACK GBD S450A): 167 nM | Kd (GST-ACK GBD G468A): 67.3 nM | fold increase in Kd over WT (GST-ACK GBD H464A/H467A): > 22.6 -fold | Kd (GST-ACK GBD I463A): 152 nM | Kd (GST-ACK GBD T465A): 85.4 nM | Kd (GST-ACK GBD R481A): 107 nM | fold increase in Kd over WT (GST-ACK GBD H467A): > 22.6 -fold | fold increase in Kd over WT (GST-ACK GBD F462A): > 22.6 -fold | Kd (GST-ACK GBD W476A): 137 nM | Kd [4]: 44.2 nM | fold increase in Kd over WT (GST-ACK GBD H464A): > 22.6 -fold | Kd (GST-ACK GBD L485A): 31.4 nM | fold increase in Kd over WT (GST-ACK GBD S461A): > 22.6 -fold | Kd (GST-ACK GBD A451D): 189 nM

GLSAQDISQPLQNSFIHTGHGDSDP (domain or fragment) [ACK GBD Δ17, cleaved from GST]
Kd (Cdc42 Δ7 Q61L): 4760 nM

GLSAQDISQPLQNSFIHTGHGDSDPRHCWGFPDRIDELYLGN (domain or fragment) [ACK GBD wild type, ACK(448-489), cleaved from GST]
Kd (Cdc42 Δ7 Q61L): 20 nM

GLSAQDISQPLQNSFIATGHGDSDPRHCWGFPDRIDELYLGN (domain or fragment) [ACK GBD H464A, cleaved from GST]
Kd (Cdc42 Δ7 Q61L): 2510 nM

GLSAQDASQPLQNSFIHTGHGDSDPRHCWGFPDRIDELYLGN (domain or fragment) [ACK GBD I454A, cleaved from GST]
Kd (Cdc42 Δ7 Q61L): 19700 nM

GLSAQDISQALQNSFIHTGHGDSDPRHCWGFPDRIDELYLGN (domain or fragment) [ACK GBD P457A, cleaved from GST]
Kd (Cdc42 Δ7 Q61L): 3830 nM

GLSAQDIAQPLQNSFIHTGHGDSDPRHCWGFPDRIDELYLGN (domain or fragment) [ACK GBD S455A, cleaved from GST]
Kd (Cdc42 Δ7 Q61L): 750 nM

GLSAQDISQPLQNSAIHTGHGDSDPRHCWGFPDRIDELYLGN (domain or fragment) [ACK GBD F462A, cleaved from GST]
Kd (Cdc42 Δ7 Q61L): 3460 nM

GLSAQDISQPLQNSFIHTGAGDSDPRHCWGFPDRIDELYLGN (domain or fragment) [ACK GBD H467A, cleaved from GST]
Kd (Cdc42 Δ7 Q61L): 1790 nM

GLSAQDISQPLQNAFIHTGHGDSDPRHCWGFPDRIDELYLGN (domain or fragment) [ACK GBD S461A, cleaved from GST]
Kd (Cdc42 Δ7 Q61L): 4160 nM

From publication PMC5500802
